Laboratory results taken from publication PMC4493278 (Cell Research, 2015).
Substitutions are numbered along the chain they refer to. Numbers in names are those of the source. Where “and” joins values, the source holds several entries; their conditions need not be identical. Equal values may be shown once. Read-outs that look alike come from different tables or passages of the source.

Legend:
Moesin FERM domain = Moesin FERM domain (UniProt P26038)
[1] = target: T1, Merlin FERM domain (Merlin-FERM, residues 1-320) (human, UniProt P35240 1-320); test: crystal structure
T1 sequence (looked up): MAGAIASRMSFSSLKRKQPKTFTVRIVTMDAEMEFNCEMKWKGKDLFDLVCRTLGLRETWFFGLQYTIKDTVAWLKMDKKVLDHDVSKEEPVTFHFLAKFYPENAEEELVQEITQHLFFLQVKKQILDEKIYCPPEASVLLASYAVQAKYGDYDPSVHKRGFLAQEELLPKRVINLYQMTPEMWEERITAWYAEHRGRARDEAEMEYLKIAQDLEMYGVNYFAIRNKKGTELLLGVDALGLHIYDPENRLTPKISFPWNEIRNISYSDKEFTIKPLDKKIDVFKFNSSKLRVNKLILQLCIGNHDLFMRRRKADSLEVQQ

S518A-Merlin = target: T2, S518A-Merlin (human, UniProt P35240 20-595, S518A); test: pull-down
T2 sequence (looked up): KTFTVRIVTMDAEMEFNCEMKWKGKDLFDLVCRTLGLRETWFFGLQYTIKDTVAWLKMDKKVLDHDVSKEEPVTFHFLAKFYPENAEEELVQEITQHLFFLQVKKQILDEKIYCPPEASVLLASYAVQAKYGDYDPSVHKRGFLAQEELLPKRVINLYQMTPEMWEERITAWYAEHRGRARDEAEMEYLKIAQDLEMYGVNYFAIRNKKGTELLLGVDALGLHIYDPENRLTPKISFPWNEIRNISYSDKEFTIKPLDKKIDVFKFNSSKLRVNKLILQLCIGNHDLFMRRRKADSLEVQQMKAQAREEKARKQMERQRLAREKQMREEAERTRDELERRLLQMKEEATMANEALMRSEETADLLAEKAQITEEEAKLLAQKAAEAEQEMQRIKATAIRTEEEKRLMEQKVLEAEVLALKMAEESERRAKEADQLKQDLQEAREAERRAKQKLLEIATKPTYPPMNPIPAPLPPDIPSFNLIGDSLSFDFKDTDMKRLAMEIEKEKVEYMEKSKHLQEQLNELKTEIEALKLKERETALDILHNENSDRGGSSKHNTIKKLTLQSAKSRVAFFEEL

[2] = target: T1, Merlin FERM domain (Merlin-FERM, …); test: ITC
[3] = target: entire C-terminal half of Merlin (human); test: SEC
S518D-Merlin = target: T3, S518D-Merlin (human, UniProt P35240 20-595, S518D); test: ITC
T3 sequence (looked up): T2 sequence (looked up) with A499D

[4] = target: T1, Merlin FERM domain (Merlin-FERM, …)

Chain of Moesin FERM domain (P26038 2-295): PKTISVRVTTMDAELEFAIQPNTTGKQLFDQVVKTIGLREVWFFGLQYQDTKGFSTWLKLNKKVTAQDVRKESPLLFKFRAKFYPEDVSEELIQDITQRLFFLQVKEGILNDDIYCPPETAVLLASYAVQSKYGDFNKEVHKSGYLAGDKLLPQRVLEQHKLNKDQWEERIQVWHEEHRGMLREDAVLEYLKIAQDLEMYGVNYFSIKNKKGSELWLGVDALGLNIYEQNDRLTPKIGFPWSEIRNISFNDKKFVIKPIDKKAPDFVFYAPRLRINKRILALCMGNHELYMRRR

Moesin tail domain (domain or fragment)
Kd (Moesin FERM domain): 16 nM

B1: Lats1 FERM-binding domain (Lats1-FBD, residues 69-100) (domain or fragment, mouse, UniProt Q8BYR2 69-100, looked up)
chain: PKFGTHHKALQEIRNSLLPFANETSSSRSPSE
binding result [1]: binds

B2: GST-tagged Lats1-FBD (domain or fragment, mouse, UniProt Q8BYR2 69-100, looked up)
chain: B1 chain
binding result (S518A-Merlin): binds

B3: N-terminus of Lats1 (Lats1-NT, residues 1-153) (domain or fragment, mouse, UniProt Q8BYR2 1-153, looked up)
chain: MKRGEKPEGYRQMRPKTFPASNYPGSSRQMLQEIRESLRNLSKPSDASKAEHNLNKMSTEDPRQVRNPPKFGTHHKALQEIRNSLLPFANETSSSRSPSEVNPQMFQDLQAAGFDEDMVIQALQKTNNRSIEAAVEFISKMSYQDPRREQMSA
Kd [2]: ~1400 nM

B4: Lats2 FERM-binding domain (Lats2-FBD, residues 68-99) (domain or fragment, human, UniProt Q9NRM7 68-99, looked up)
chain: PKFGPYQKALREIRYSLLPFANESGTSAAAEV
binding result [1]: binds

B5: elongated α-helix-rich region of AMOT (residues 404-728 of AMOT-p130) (domain or fragment)
chain: ADPFAMVSRAQQMVEILSDENRNLRQELDGCYEKVARLQKVETEIQRVSEAYENLVKSSSKREALEKAMRNKLEGEIRRMHDFNRDLRDRLETANKQLAEKEYEGSEDTRKTISQLFAKHKENQREKEKLEAELATARSTNEDQRRHIEIRDQALSNAQAKVVKLEEELKKKQVYVDKVEKMQQALVQLQAACEKREQLEHRLRTRLERELESLRIQQRQGNSQPTNASEYNAAALMELLREKEERILALEADMTKWEQKYLEENVMRHFALDAAATVAAQRDTTVISHSPNTSYDTALEARIQKEEEEILMANKRCLDMEGRIK
stoichiometry N [3]: 1

B6: EBP50 C-terminal tail (EBP50-CT, residues 320-358) (domain or fragment, human, UniProt O14745 320-358, looked up)
chain: ILDFNISLAMAKERAHQKRSSKRAPQMDWSKKNELFSNL
Kd [2]: ~80 nM | binding result (S518D-Merlin): binds

B7: Merlin-CTD-S518D (domain or fragment, human, UniProt P35240 507-595, looked up)
chain: FDFKDTDMKRLDMEIEKEKVEYMEKSKHLQEQLNELKTEIEALKLKERETALDILHNENSDRGGSSKHNTIKKLTLQSAKSRVAFFEEL
Kd [4]: ~4000 nM

B8: Merlin C-terminal tail domain (Merlin-CTD, residues 507-595) (domain or fragment, human, UniProt P35240 507-595, looked up)
chain: B7 chain with D12S
Kd [4]: ~3000 nM and ~4000 nM

B9: Merlin-CTD bearing S518D/A585W substitutions (domain or fragment, human, UniProt P35240 507-595, looked up)
chain: B7 chain with A79W
binding result [1]: binds
